One data set concerns Pneumococci (Pnc). Description: Rabbit immunization with MAP of P4: serum inhibition of adherence of Pneumococci to Detroit 562 cells (anti Pneumococcal activity). The data set is classed as in vivo, Streptococcus pneumoniae. From the text: The MAPs consist of two arms, each consisting of SEQ ID NO:1 linked via lys or nle-lys to a resin.
Assessment of Serum Samples: • 1) Inhibition of adherence of P4 coated fluorescent beads to Detroit 562 cells (in vitro; tissue culture) to detect the presence of anti P4 antibodies in serum. • 2) Inhibition of adherence of PsaA coated fluorescent beads to Detroit 562 cells (in vitro; tissue culture) to detect the presence of anti PsaA antibodies in the serum. • 3) Inhibition of adherence of Pneumococci (Pnc) to Detroit 562 cells (in vitro; tissue culture) to detect the presence of anti Pnc antibodies in serum. Immunization with P4E—Analyses of Rabbit Sera for Anti P4 and Anti Pneumococcal (Pnc) Antibody: Animal 465

Data set [1] has as its target T1, P4 coated fluorescent beads (Streptococcus pneumoniae serotype 4, UniProt P0A4G2, D258K/D259R).
T1 sequence (P0A4G2 251-278 D258K/D259R): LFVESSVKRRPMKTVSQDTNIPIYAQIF
Description: Rabbit immunization with MAP of P4: serum inhibition of adherence of P4 coated fluorescent beads to Detroit 562 cells (anti P4 activity). The data set is classed as in vivo.

Data set [2] deals with Detroit 562 cells. Description: Adherence of rPsaA- or peptide-coated fluospheres (beads) to Detroit 562 cells. The following applies: 3,100±500 fluospheres per well; 2 hour incubation. The data set is classed as cell-based, human. As for the experimental part: (§1) Carboxylate-modified fluorospheres (Molecular Probes™, […]) coated with either recombinant PsaA (rPsaA) or PsaA synthetic peptide (P4) were evaluated for their adherence to Detroit 562 NP cells. Four different batches of PsaA beads were generated by varying the concentration of the protein solution used to coat the beads (0.9 mg/ml, 0.53 mg/ml, 5.3 μg/ml and 0.53 μg/ml). P4 and Glycine control beads were generated by using a peptide solution (0.9 mg/ml). Protein concentrations were confirmed by the Bradford test (Sigma). PsaA and peptide beads were compared at similar inocula (1640±210 beads per well) in adherence and adherence competition assays (measured as mean fluorescent units (FU±SE)).
Recombinant PsaA protein or synthetic peptides were covalently bound to carboxylate-modified FluoSpheres (Molecular Probes, Eugene, Oreg.) (505/515 nm range, yellow, 1 μm in diameter). […] The 2% fluosphere stock was vortexed for 2 minutes at full speed. A 250-μl aliquot was sonicated for 5 minutes to break clumps. The sonicated fluospheres were washed 3 times by centrifugation at 10,000 rpm for 10 minutes in 250 μl MES buffer, pH 6.0 (Molecular Probes). The negative charge in the carboxylate-modified fluospheres was activated by adding 50 μl of EDAC solution (100 mg/ml, Molecular Probes) to the washed fluospheres resuspended in 200 μl MES. The fluospheres were incubated for 30 minutes RT with gentle rotation. A 250-μl volume of rPsaA (1 mg/ml) or peptide (2 mg/ml) resuspended in MES buffer was added to each fluosphere pellet. Suboptimal concentrations of rPsaA (900, 530, 5.3 and 0.53 μg/ml) were also used to generate partially coated fluospheres. Peptides were dissolved as 1 mg in 50 μl of 10% acetic acid followed by addition of 450 μl of MES buffer, pH 6.0. The 500-μl fluosphere suspension was incubated in the dark over night at room temperature with horizontal rotation (150 rpm). The remaining reactive sites were blocked by addition of a 50-μl volume of 1 M solution of glycine, followed by a-30-minute incubation at room temperature with horizontal rotation. The fluosphere suspension was then washed with 500 μl PBS, 50 mM, pH 7.2-7.4 three times by centrifugation at 10,000 rpm for 10 minutes. The first supernatant of the first wash was saved for protein determinations using the microtiter microdilution method of Bradford (Bio-Rad Laboratories, Calif.). The labeled fluosphere pellet was resuspended in 500 μl of PBS, 50 mM, pH 7.2-7.4. Labeled fluospheres were stored in the dark in 100-μl aliquots at 4° C. for up to 4 months. The peptides were stored in powder form at 4° C. under Dryerite desiccant. The resuspended peptides were stored at 4° C. for 6 weeks and for long term storage at −70° C. Fluospheres were counted by limiting dilution using a fluorometer (FLX-600, BioTek) with 485/520 nm excitation/emission wavelength and comparison to a calibration curve previously generated against hemacytometer counts.
Confluent monolayers of Detroit 562 cells grown in 96-well tissue culture plates for 6 days were washed once with 130 μl/well of PBS buffer+0.5% BSA (Sigma cat #A2153, Fraction V purified by alcohol precipitation). The entire outer perimeter of the microtiter plate was not used for adherence assays due to edge effect and lack of confluent growth in these wells. An 80-μl volume per well of PBS buffer+1% BSA and 20 μl per well of diluted fluosphere suspension (to yield ˜3100±500 fluospheres in a 20-μl volume) were added to the washed monolayers. The diluted fluosphere suspension was sonicated for 3 minutes prior to addition to the center of the wells. […] The sides of the plates were then tapped gently to mix. […] Following incubation, plates were washed 5 times with 130 μL/well of PBS+0.5% BSA. The liquid was removed after each wash with a multi-channel aspirator (Costar) and moderate vacuum. The plate was allowed to dry before reading in the fluorometer (485/520 nm). […]

In data set [3] the test system is Detroit 562 cells. Description: Competitive inhibition of adherence of rPsaA-coated fluospheres to Detroit 562 cells. The data set is classed as cell-based, human. The following applies: peptide 10 μg/well. As for the experimental part: as §1
(§2) Homologous competitive inhibitions with 0.5 to 10 μg per well of rPsaA protein or 5 to 20 μg per well of each peptide were performed to determine the specificity of the adherence for rPsaA-coated fluospheres or for each of the three peptide-coated fluospheres. Heterologous competitive inhibitions with each peptide (10 μg per well) were performed to determine which peptide blocked the adherence of whole PsaA-coated fluospheres to the Detroit 562 cells. Absorption of PsaA-specific antibodies was performed by incubation (2 hours at ambient room temperature with rotation, 100 rpm) of 500 μl (1:8 dilution) of the serum 7051 with nitrocellulose strips (2.5×0.5 cm), previously impregnated with rPsaA protein (1.8 mg/ml) and allowed to dry at 37° C. for 1 hour. Strips were replaced every 2 hours for a total of 3 changes. All antibody absorptions were performed in PBS (10 mM, pH 7.2) supplemented with 1% (weight/volume) BSA as a non-specific blocker. Immunoglobulin G (IgG) concentrations (μg/ml) were measured as previously described (Tharpe, Romero-Steiner) after each absorption step to monitor the decline of anti-PsaA antibodies.

For data set [4], the system named is Detroit 562 cells. The experiment in a line: Homologous competitive inhibition of adherence of rPsaA- or peptide-coated fluospheres to Detroit 562 cells. The data set is classed as cell-based, human. As for the experimental part:
as §1, §2

The subject of the next data set is pneumococci. The following applies: antibodies to the peptides; cited from earlier work.
[5] abbreviates: rabbit serum 1:1000, Bleed # 1 (Day 28).
Setting [6] is: rabbit serum 1:1000, Bleed # 2 (Day 42).
Setting [7] is: rabbit serum 1:8000, Bleed # 1 (Day 28).
Setting [8] is: rabbit serum 1:8000, Bleed # 2 (Day 42).
Setting [9] is: rabbit serum 1:16000, Bleed # 2 (Day 42).
[10] abbreviates: rabbit serum 1:32000, Bleed # 1 (Day 28).
[11] abbreviates: rabbit serum 1:10, Bleed # 1 (Day 28).
The mark [12] stands for this setting: rabbit serum 1:10, Bleed # 2 (Day 42).
Where [13] appears, read: rabbit serum 1:100, Bleed # 1 (Day 28).
Setting [14] is: rabbit serum 1:16000, Bleed # 1 (Day 28).
[15] abbreviates: rabbit serum 1:32000, Bleed # 2 (Day 42).
[16] abbreviates: rabbit serum 1:64000, Bleed # 1 (Day 28).
Setting [17] is: rabbit serum 1:64000, Bleed # 2 (Day 42).
Setting [18] is: rabbit serum 1:128000, Bleed # 1 (Day 28).
[19] abbreviates: rabbit serum 1:128000, Bleed # 2 (Day 42).
Setting [20] is: rabbit serum 1:256000, Bleed # 1 (Day 28).
[21] abbreviates: rabbit serum 1:256000, Bleed # 2 (Day 42).
Setting [22] is: rabbit serum 1:512000, Bleed # 1 (Day 28).
Where [23] appears, read: rabbit serum 1:512000, Bleed # 2 (Day 42).

“And” between values parts separate entries of the source, which are not always exact repeats. Identical values can stand only once. No end group written: not given here.

Take “P4E2: Multi Antigenic Peptide (MAP) of P4: two arms, each SEQ ID NO:1, linked via lys or nle-lys to a resin (chain 1 LFVESSVKRRPMKTVSQDTNIPIYAQIF; chain 2 LFVESSVKRRPMKTVSQDTNIPIYAQIF; not fully specified; also: MAP: two identical arms on a Lys or Nle-Lys core)”: the “Anti Pneumococcal activity, % inhibition of adherence (% IA)” value was 22% and 23% in the data set with Pneumococci (Pnc) (setting [5]); 33% and 20% in the data set on Pneumococci (Pnc) (setting [6]); 19% and 21% in the data set on Pneumococci (Pnc) (setting [7]); 22% and 16% in the data set with Pneumococci (Pnc) (setting [8]); 18% and 12% in the data set on Pneumococci (Pnc) (setting [9]); 0% in the data set with Pneumococci (Pnc) (setting [10]). Besides, the “Anti P4 activity, % inhibition of adherence (% IA)” value (shortened to “Anti P4 activity, % inhibition”) in data set [1] (setting [11]) was 50% and 56%; in data set [1] (setting [12]) it was 74% and 75%; in data set [1] (setting [13]), 0%; in data set [1] (rabbit serum 1:100, Bleed # 2 (Day 42)), 0% and 3%; in data set [1] (setting [5]), 0%; in data set [1] (setting [6]), 4% and 1%. The “Anti P4 activity, % inhibition” value was 0% in data set [1] (setting [7]); 1% and 2% in data set [1] (setting [8]); 0% in data set [1] (setting [14]); 0% in data set [1] (setting [9]); 0% in data set [1] (setting [10]); 0% in data set [1] (setting [15]). In addition, the “Anti P4 activity, % inhibition” value is 0% in data set [1] (setting [16]); 2% and 4% in data set [1] (setting [17]); 0% in data set [1] (setting [18]); 4% and 0% in data set [1] (setting [19]); 0% in data set [1] (setting [20]); 4% and 5% in data set [1] (setting [21]). Further, the “Anti P4 activity, % inhibition” value in data set [1] (setting [22]) and in data set [1] (setting [23]) was 0% throughout.
For the substance “RSYQHDLRAYGFWRL [P2, synthetic peptide identified by phage display, reference compound]”, the “mean adherence of coated fluospheres (mean FU±SE)” value in the data set on Detroit 562 cells [2] was 17,195±1,044 FU. Also, in the data set on Detroit 562 cells [3], the “inhibition of rPsaA-fluosphere adherence, heterologous competition” value stood at 62.2%. Moreover, the “percent reduction in adherence of homologous coated fluospheres” value with Detroit 562 cells [4] (homologous competitor 5.0 μg/well) was determined as 43.1%; in the data set on Detroit 562 cells [4] (homologous competitor 10 μg/well) it was 20.5%; in the data set on Detroit 562 cells [4] (homologous competitor 20 μg/well), 0.8%. Besides, the “colonization in mice immunized with the peptides” value in the data set with pneumococci was “reduce colonization”.
Regarding “P4E: Multi Antigenic Peptide (MAP) of P4: two arms, each SEQ ID NO:1, linked via lys or nle-lys to a resin (chain 1 LFVESSVKRRPMKTVSQDTNIPIYAQIF; chain 2 LFVESSVKRRPMKTVSQDTNIPIYAQIF; also: MAP: two P4 arms on a Lys or Nle-Lys core)”, the “Anti Pneumococcal activity, % inhibition of adherence (% IA)” value is 24% and 38% in the data set on Pneumococci (Pnc) (setting [5]); 23% and 34% in the data set on Pneumococci (Pnc) (setting [7]); 13% and 21% with Pneumococci (Pnc) (setting [8]); 25% and 27% in the data set on Pneumococci (Pnc) (setting [14]); 14% and 16% with Pneumococci (Pnc) (setting [15]). Besides, the “Anti P4 activity, % inhibition” value was 39% and 46% in data set [1] (setting [11]); 43% and 48% in data set [1] (setting [12]); 32% and 29% in data set [1] (setting [13]); 33% and 41% in data set [1] (setting [5]); 9% and 12% in data set [1] (setting [6]); 6% and 9% in data set [1] (setting [7]). The “Anti P4 activity, % inhibition” value was 5% and 4% in data set [1] (setting [8]); 12% and 15% in data set [1] (setting [14]); 7% and 1% in data set [1] (setting [9]); 9% and 5% in data set [1] (setting [15]); 22% and 21% in data set [1] (setting [16]); 6% and 3% in data set [1] (setting [17]). The “Anti P4 activity, % inhibition” value in data set [1] (setting [18]) was 10% and 15%; in data set [1] (setting [19]) it was 5% and 9%; in data set [1] (setting [20]) it was 5% and 7%; in data set [1] (setting [21]), 0% and 3%; in data set [1] (setting [22]), 5% and 7%; in data set [1] (setting [23]) it was 6% and 3%.

These data come from patent US7919104B2, “Functional epitopes of Streptococcus pneumoniae PsaA antigen and uses thereof” (priority 2005, dated 2011).
